The values that follow come from US20260266848A1, “COMPOSITIONS AND METHODS FOR DIAGNOSING AND TREATING DYSTONIA” (Duke University, priority 2023, published 2026).

One test concerns DYT-TOR1A MEF EVs. The experiment in a line: Quantitative LC-MS/MS proteomics of EVs from drug-treated DYT-TOR1A MEF cultures (ritonavir, salubrinal). The class given is cell-based, mouse. Further details: key to RTV Corrective Direction / RTV Corrective Direction, Grwd1 / RTV Corrective Direction, Srrm2 / RTV Corrective Direction, Rbm17 / RTV Corrective Direction, Dcaf8 / RTV Corrective Direction, Edil3 / RTV Corrective Direction, Timp3 / RTV Corrective Direction, Heatr3 / RTV Corrective Direction, Brd4 / RTV Corrective Direction, P3h4 / RTV Corrective Direction, Pacsin3 / RTV Corrective Direction, Naa50 / RTV Corrective Direction, Lpar6 / RTV Corrective Direction, Ndrg1 / RTV Corrective Direction, Kntc1 / RTV Corrective Direction, Cdk11b / RTV Corrective Direction, Sumo1 / RTV Corrective Direction, Lsm4 / RTV Corrective Direction, Hmga2 / RTV Corrective Direction, Cstf1 / RTV Corrective Direction, Tes / RTV Corrective Direction, Sbno1 / RTV Corrective Direction, Unc119b / RTV Corrective Direction, Cfdp1 / RTV Corrective Direction, Sec61b: YES = protein abundance effect opposite to DYT/WT. The following applies: EV protein abundance; for DYT + RTV/DYT Cohen's d: ritonavir (RTV)-treated DYT vs DYT.

The subject of another test is WT MEF EVs. The experiment in a line: Quantitative LC-MS/MS proteomics of EVs from ISRIB-treated WT MEF cultures. The test is classed as cell-based, mouse. Further details: key to ISRIB and DYT Parallel Direction / ISRIB and DYT Parallel Direction, Ctdsp1 / ISRIB and DYT Parallel Direction, Pcdh19 / ISRIB and DYT Parallel Direction, Tspan7 / ISRIB and DYT Parallel Direction, Myo1e / ISRIB and DYT Parallel Direction, Plpp3 / ISRIB and DYT Parallel Direction, Sh3bp4 / ISRIB and DYT Parallel Direction, Dnajc7 / ISRIB and DYT Parallel Direction, Drg1 / ISRIB and DYT Parallel Direction, Maea: YES = protein abundance effect similar to DYT/WT. The following applies: EV protein abundance; for WT + ISRIB/WT Cohen's d: ISRIB-treated WT vs WT; for ISRIB and DYT Parallel Direction: WT + ISRIB vs WT, direction compared with DYT/WT.

B1: Ilf3 (protein, UniProt Q9Z1X4 1-898, looked up)
Interleukin enhancer-binding …: MRPMRIFVNDDRHVMAKHSSVYPTQEELEAVQNMVSHTERALKAVSDWIDEQEKGNSELSEAENMDTPPDDESKEGAGEQKAEHMTRTLRGVMRVGLVAKGLLLKGDLDLELVLLCKEKPTTALLDKVADNLAIQLTTVTEDKYEILQSVDDAAIVIKNTKEPPLSLTIHLTSPVVREEMEKVLAGETLSVNDPPDVLDRQKCLAALASLRHAKWFQARANGLKSCVIVIRVLRDLCTRVPTWGPLRGWPLELLCEKSIGTANRPMGAGEALRRVLECLASGIVMPDGSGIYDPCEKEATDAIGHLDRQQREDITQSAQHALRLAAFGQLHKVLGMDPLPSKMPKKPKNENPVDYTVQIPPSTTYAITPMKRPMEEDGEEKSPSKKKKKIQKKEEKADPPQAMNALMRLNQLKPGLQYKLISQTGPVHAPIFTMSVEVDGSNFEASGPSKKTAKLHVAVKVLQDMGLPTGAEGRDSSKGEDSAEESDGKPAIVAPPPVVEAVSNPSSVFPSDATTEQGPILTKHGKNPVMELNEKRRGLKYELISETGGSHDKRFVMEVEVDGQKFQGAGSNKKVAKAYAALAALEKLFPDTPLALEANKKKRTPVPVRGGPKFAAKPHNPGFGMGGPMHNEVPPPPNIRGRGRGGNIRGRGRGRGFGGANHGGGYMNAGAGYGSYGYSSNSATAGYSQFYSNGGHSGNAGGGGSGGGGGSSSYSSYYQGDSYNSPVPPKHAGKKPLHGGQQKASYSSGYQSHQGQQQPYNQSQYSSYGTPQGKQKGYGHGQGSYSSYSNSYNSPGGGGGSDYSYDSKFNYSGSGGRSGGNSYGSSGSSSYNTGSHGGYGTGSGGSSSYQGKQGGYSSQSNYSSPGSSQSYSGPASSYQSSQGGYSRNTEHSMNYQYR
On to B1, for which the “DYT + RTV/DYT Cohen's d” value in the test on DYT-TOR1A MEF EVs is −1.23. In the test with WT MEF EVs, the “WT + ISRIB/WT Cohen's d” value is on record as −4.89; the “ISRIB and DYT Parallel Direction” value is “YES”.

B2: Serpinf1 (protein, UniProt P97298 20-417, looked up)
Pigment epithelium-derived …: QNVPSSSEGSPVPDSTGEPVEEEDPFFKVPVNKLAAAVSNFGYDLYRLRSSASPTGNVLLSPLSVATALSALSLGAEHRTESVIHRALYYDLITNPDIHSTYKELLASVTAPEKNLKSASRIVFERKLRVKSSFVAPLEKSYGTRPRILTGNPRVDLQEINNWVQAQMKGKIARSTREMPSALSILLLGVAYFKGQWVTKFDSRKTTLQDFHLDEDRTVRVPMMSDPKAILRYGLDSDLNCKIAQLPLTGSMSIIFFLPLTVTQNLTMIEESLTSEFIHDIDRELKTIQAVLTVPKLKLSFEGELTKSLQDMKLQSLFESPDFSKITGKPVKLTQVEHRAAFEWNEEGAGSSPSPGLQPVRLTFPLDYHLNQPFLFVLRDTDTGALLFIGRILDPSST
On to B2, for which the “DYT + RTV/DYT Cohen's d” value in the test on DYT-TOR1A MEF EVs was determined as 1.47. The “WT + ISRIB/WT Cohen's d” value in the test on WT MEF EVs is −1.83.

B3: Lnpep (protein, UniProt Q8C129 1-1025, looked up)
Leucyl-cystinyl aminopeptidase: MESFTNDRLQLPRNMIENSMFEEEPDVVDLAKEPCLHPLEPDEVEYEPRGSRLLVRGLGEHEMDEDEEDYESSAKLLGMSFMNRSSGLRNSAAGYRQSPDGTCSLPSARTLVICVFVIVVAVSVIMVIYLLPRCTFTKEGCHKTNQSAELIQPVATNGKVFPWAQIRLPTAIIPLCYELSLHPNLTSMTFRGSVTISLQALQDTRDIILHSTGHNISRVTFMSAVSSQEKQVEILEYPYHEQIAVVAPEPLLTGHNYTLKIEYSANISNSYYGFYGITYTDKSNEKKYFAATQFEPLAARSAFPCFDEPAFKATFIIKITRNEHHTALSNMPKKSSVPAEEGLIQDEFSESVKMSTYLVAFIVGEMRNLSQDVNGTLVSVYAVPEKIGQVHHALDTTIKLLEFYQTYFEIQYPLKKLDLVAIPDFEAGAMENWGLLTFREETLLYDNATSSVADRKLVTKIIAHELAHQWFGNLVTMQWWNDLWLNEGFATFMEYFSVEKIFKELNSYEDFLDARFKTMRKDSLNSSHPISSSVQSSEQIEEMFDSLSYFKGASLLLMLKSYLSEDVFRHAVILYLHNHSYAAIQSDDLWDSFNEVTDKTLDVKKMMKTWTLQKGFPLVTVQRKGTELLLQQERFFLRMQPESQPSDTSHLWHIPISYVTDGRNYSEYRSVSLLDKKSDVINLTEQVQWVKVNSNMTGYYIVHYAHDDWTALINQLKRNPYVLSDKDRANLINNIFELAGLGKVPLRMAFDLIDYLKNETHTAPITEALFQTNLIYNLLEKLGHMDLSSRLVARVHKLLQNQIQQQTWTDEGTPSMRELRSALLEFACAHSLENCTTMATNLFDSWMASNGTQSLPTDVMVTVFKVGARTEKGWLFLFSMYSSMGSEAEKNKILEALASSEDVHKLYWLMKSSLDGDIIRTQKLSLIIRTVGRHFPGHLLAWDFVKENWNKLVHKFHLGSYTIQSIVAGSTHLFSTKTHLSEVQAFFENQSEATLKLRCVQEALEVIQLNIQWMVRNLKTLSQWL
Regarding B3, the “DYT + RTV/DYT Cohen's d” value with DYT-TOR1A MEF EVs is −0.39. Further, in the test with WT MEF EVs, the “WT + ISRIB/WT Cohen's d” value is −1.24; the “ISRIB and DYT Parallel Direction” value is reported as “YES”.

B4: Slc25a5 (protein, UniProt P51881 1-298, looked up)
ADP/ATP translocase 2: MTDAAVSFAKDFLAGGVAAAISKTAVAPIERVKLLLQVQHASKQITADKQYKGIIDCVVRIPKEQGVLSFWRGNLANVIRYFPTQALNFAFKDKYKQIFLGGVDKRTQFWRYFAGNLASGGAAGATSLCFVYPLDFARTRLAADVGKAGAEREFKGLGDCLVKIYKSDGIKGLYQGFNVSVQGIIIYRAAYFGIYDTAKGMLPDPKNTHIFISWMIAQSVTAVAGLTSYPFDTVRRRMMMQSGRKGTDIMYTGTLDCWRKIARDEGSKAFFKGAWSNVLRGMGGAFVLVLYDEIKKYT
B4: the “DYT + RTV/DYT Cohen's d” value with DYT-TOR1A MEF EVs is −0.78. In the test on WT MEF EVs, the “WT + ISRIB/WT Cohen's d” value is given as −0.54; the “ISRIB and DYT Parallel Direction” value is listed as “YES”.

B5: Wbp2 (protein, UniProt P97765 1-261, looked up)
WW domain-binding protein 2: MALNKNHSEGGGVIVNNTESILMSYDHVELTFNDMKNVPEAFKGTKKGTVYLTPYRVIFLSKGKDAMQSFMMPFYLMKDCEIKQPVFGANFIKGIVKAEAGGGWEGSASYKLTFTAGGAIEFGQRMLQVASQASRGEVPNGAYGYPYMPSGAYVFPPPVANGMYPCPPGYPYPPPPPEFYPGPPMMDGAMGYVQPPPPPYPGPMEPPVSGPSAPATPAAEAKAAEAAASAYYNPGNPHNVYMPTSQPPPPPYYPPEDKKTQ
Take B5: the “DYT + RTV/DYT Cohen's d” value in the test with DYT-TOR1A MEF EVs is −0.89. In the test on WT MEF EVs, the “WT + ISRIB/WT Cohen's d” value is on record as −1.50; the “ISRIB and DYT Parallel Direction” value was “YES”.

B6: Exoc4 (protein, UniProt O35382 2-975, looked up)
Exocyst complex component 4: AAEAAGGKYRSTVSKSKDPSGLLISVIRTLSTSDDVEDRENEKGRLEEAYEKCDRDLDELIVQHYTELTTAIRTYQSITERITNSRNKIKQVKENLLSCKMLLHCKRDELRKLWIEGIEHKHVLNLLDEIENIKQVPQKLEQCMASKHYLSATDMLVSAVESLEGPLLQVEGLSDLRLELHSKKMNLHLVLIEELHRHLYIKSTSRVVQRNKEKGKMSSHGKDPSPGPLIDVSNIPTPRKFLDASQYSAAGGSSVREMNLQDVKEDLECDPEENSTLFMGILIQGLARLKKIPETVKAIKERLEQELKQIVKRSTTQVADSAYQRGESLTVDNQPRLLLELLELLFDKFNAVATAHSVVLGYLQDSVGTQLTQQEEIKLYDMADVWVKIQDVLQMLLTEYLDMKNTRTASEPSAQLSYASTGREFAAFFAKKKPQRPKNSLFKFESSSHAISMSAYLREQRRELYSRSGELQGGPDDNLIEGGGTKFVCKPGARNITVIFHPLLRFIQEIEHALGLGPAKQCPLREFLTVYIKSIFLNQVLAEINKEIEGVTKTSDPLKILANADTMKVLGVQRPLLQSTIIVEKTVQDLMNLMHDLSAYSDQFLNMVCVKLQEYKDTCSTAYRGIVQSEEKLVISASWAKDDDISRLLKSLPNWTNMAQPKQLRPKREEEEDFIRAAFGKESEVLIGNLGDKLIPPQDILRDVSDLKALANMHESLEWLAGRTKSAFSNLSTSQMLSPAQESHVNMDLPPVSEQIMQTLSELAKTFQDMADRCLLVLHLEVRVHCFHYLIPLAKEGNYAIVANVESMDYDPLVVKLNKDISAMEEAMSASLQQHKFQYIFEGLGHLISCILINGAQYFRRISESGIKKMCRNIFVLQQNLTNITMSREADLDFARQYYEMLYNTADELLNLVVDQGVKYTELEYIHALTLLHRSQTGVGDQTTQNTRLQRLKEIICEQAAIKQATKDKKITTV
As to B6, in the test with DYT-TOR1A MEF EVs (DYT + RTV (ritonavir) vs DYT, direction compared with DYT/WT), the “RTV Corrective Direction” value is on record as “YES”. The “DYT + RTV/DYT Cohen's d” value in the test on DYT-TOR1A MEF EVs is reported as 7.70. In addition, in the test on WT MEF EVs, the “WT + ISRIB/WT Cohen's d” value is reported as −1.51; the “ISRIB and DYT Parallel Direction” value is “YES”.

B7: Apom (protein, UniProt Q9Z1R3 1-190, looked up)
Apolipoprotein M: MFHQVWAALLSLYGLLFNSMNQCPEHSQLTALGMDDTETPEPHLGLWYFIAGAASTTEELATFDPVDNIVFNMAAGSAPRQLQLRATIRTKSGVCVPRKWTYRLTEGKGNMELRTEGRPDMKTDLFSSSCPGGIMLKETGQGYQRFLLYNRSPHPPEKCVEEFQSLTSCLDFKAFLVTPRNQEACPLSSK
B7: in the test with DYT-TOR1A MEF EVs, the “DYT + RTV/DYT Cohen's d” value was 0.40. Moreover, in the test on WT MEF EVs, the “WT + ISRIB/WT Cohen's d” value is given as 2.53; the “ISRIB and DYT Parallel Direction” value is on record as “YES”.
